{"source": "paper PMC2756588"}
{"biological_target": "Bem1-2, P29366", "sequence (P29366 139-227)": "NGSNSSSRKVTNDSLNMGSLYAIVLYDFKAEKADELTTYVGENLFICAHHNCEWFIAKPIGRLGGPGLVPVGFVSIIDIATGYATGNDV", "test": "SPOT array", "details": "median of control spots 4347"}
{"binder": "RSVKRPRRAPRPVVS", "SPOT intensity": 15}
{"binder": "RRTRLRPPTPLSQLL", "SPOT intensity": 15}
{"binder": "SNRRPVPRRPSQPLN", "SPOT intensity": 29}
{"biological_target": "T1, Pin3, Q06449", "T1 sequence (Q06449 53-122, looked up)": "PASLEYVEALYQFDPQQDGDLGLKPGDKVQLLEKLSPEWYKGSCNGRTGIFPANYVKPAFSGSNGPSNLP", "test": "SPOT array", "details": "median of control spots 2171"}
{"binder": "RSVKRPRRAPRPVVS", "SPOT intensity": 2}
{"binder": "RRTRLRPPTPLSQLL", "SPOT intensity": 9}
{"binder": "SNRRPVPRRPSQPLN", "SPOT intensity": 12}
{"biological_target": "T2, Sla1-3, P32790", "T2 sequence (P32790 344-424, looked up)": "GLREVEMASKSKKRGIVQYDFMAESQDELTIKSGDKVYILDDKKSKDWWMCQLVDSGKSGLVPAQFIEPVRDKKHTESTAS", "test": "SPOT array", "details": "median of control spots 5475"}
{"binder": "RSVKRPRRAPRPVVS", "SPOT intensity": 25}
{"binder": "RRTRLRPPTPLSQLL", "SPOT intensity": 35}
{"binder": "SNRRPVPRRPSQPLN", "SPOT intensity": 459}
{"biological_target": "T3, Lsb4, P32793", "T3 sequence (P32793 402-468, looked up)": "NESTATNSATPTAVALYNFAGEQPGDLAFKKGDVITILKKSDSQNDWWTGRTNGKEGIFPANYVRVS", "test": "SPOT array", "details": "median of control spots 397"}
{"binder": "RSVKRPRRAPRPVVS", "SPOT intensity": 34}
{"binder": "RRTRLRPPTPLSQLL", "SPOT intensity": 1}
{"binder": "SNRRPVPRRPSQPLN", "SPOT intensity": 333}
{"biological_target": "T4, Bzz1-2, P38822", "T4 sequence (P38822 568-633, looked up)": "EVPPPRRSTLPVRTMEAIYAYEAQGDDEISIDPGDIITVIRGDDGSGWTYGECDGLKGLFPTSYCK", "test": "SPOT array", "details": "median of control spots 4538"}
{"binder": "RSVKRPRRAPRPVVS", "SPOT intensity": 3}
{"binder": "RRTRLRPPTPLSQLL", "SPOT intensity": 0}
{"binder": "SNRRPVPRRPSQPLN", "SPOT intensity": 60}
{"biological_target": "T5, Abp1, P15891", "T5 sequence (P15891 535-592, looked up)": "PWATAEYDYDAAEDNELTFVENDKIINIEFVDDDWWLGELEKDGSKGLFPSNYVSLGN", "test": "SPOT array", "details": "median of control spots 935"}
{"binder": "RSVKRPRRAPRPVVS", "SPOT intensity": 204}
{"binder": "RRTRLRPPTPLSQLL", "SPOT intensity": 103}
{"binder": "SNRRPVPRRPSQPLN", "SPOT intensity": 139}
{"biological_target": "T6, Boi2, P39969", "T6 sequence (P39969 32-116, looked up)": "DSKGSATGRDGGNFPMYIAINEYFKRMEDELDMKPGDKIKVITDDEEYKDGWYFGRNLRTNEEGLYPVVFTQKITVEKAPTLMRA", "test": "SPOT array", "details": "median of control spots 1161"}
{"binder": "RSVKRPRRAPRPVVS", "SPOT intensity": 6}
{"binder": "RRTRLRPPTPLSQLL", "SPOT intensity": 0}
{"binder": "SNRRPVPRRPSQPLN", "SPOT intensity": 1}
{"biological_target": "T7, Bud14, P27637", "T7 sequence (P27637 247-328, looked up)": "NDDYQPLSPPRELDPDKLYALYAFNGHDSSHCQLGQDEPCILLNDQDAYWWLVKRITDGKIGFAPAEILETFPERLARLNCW", "test": "SPOT array", "details": "median of control spots 956"}
{"binder": "RSVKRPRRAPRPVVS", "SPOT intensity": 12}
{"binder": "RRTRLRPPTPLSQLL", "SPOT intensity": 24}
{"binder": "SNRRPVPRRPSQPLN", "SPOT intensity": 16}
{"biological_target": "T8, Sla1-2, P32790", "T8 sequence (P32790 60-140, looked up)": "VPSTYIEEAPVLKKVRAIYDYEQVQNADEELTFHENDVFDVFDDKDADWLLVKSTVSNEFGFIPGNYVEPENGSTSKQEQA", "test": "SPOT array", "details": "median of control spots 712"}
{"binder": "RSVKRPRRAPRPVVS", "SPOT intensity": 6}
{"binder": "RRTRLRPPTPLSQLL", "SPOT intensity": 0}
{"binder": "SNRRPVPRRPSQPLN", "SPOT intensity": 0}
{"biological_target": "T9, Lsb1, P53281", "T9 sequence (P53281 45-122, looked up)": "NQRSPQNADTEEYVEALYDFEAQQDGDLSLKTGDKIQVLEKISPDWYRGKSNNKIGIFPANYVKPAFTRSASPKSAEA", "test": "SPOT array", "details": "median of control spots 388"}
{"binder": "RSVKRPRRAPRPVVS", "SPOT intensity": 94}
{"binder": "RRTRLRPPTPLSQLL", "SPOT intensity": 215}
{"binder": "SNRRPVPRRPSQPLN", "SPOT intensity": 576}
{"biological_target": "T10, Nbp2, Q12163", "T10 sequence (Q12163 103-180, looked up)": "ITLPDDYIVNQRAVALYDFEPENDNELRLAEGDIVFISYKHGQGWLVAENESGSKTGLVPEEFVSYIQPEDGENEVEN", "test": "SPOT array", "details": "median of control spots 357"}
{"binder": "RSVKRPRRAPRPVVS", "SPOT intensity": 67}
{"binder": "RRTRLRPPTPLSQLL", "SPOT intensity": 11}
{"binder": "SNRRPVPRRPSQPLN", "SPOT intensity": 46}
{"biological_target": "T11, Cyk3, Q07533", "T11 sequence (Q07533 1-83, looked up)": "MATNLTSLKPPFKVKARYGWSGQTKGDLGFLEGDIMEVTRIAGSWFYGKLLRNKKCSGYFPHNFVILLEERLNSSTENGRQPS", "test": "SPOT array", "details": "median of control spots 1451"}
{"binder": "RSVKRPRRAPRPVVS", "SPOT intensity": 12}
{"binder": "RRTRLRPPTPLSQLL", "SPOT intensity": 7}
{"binder": "SNRRPVPRRPSQPLN", "SPOT intensity": 0}
{"biological_target": "T12, Pex13, P80667", "T12 sequence (P80667 295-386, looked up)": "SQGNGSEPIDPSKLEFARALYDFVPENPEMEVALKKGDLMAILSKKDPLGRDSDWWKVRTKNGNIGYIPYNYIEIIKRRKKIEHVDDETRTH", "test": "SPOT array", "details": "median of control spots 1341"}
{"binder": "RSVKRPRRAPRPVVS", "SPOT intensity": 0}
{"binder": "RRTRLRPPTPLSQLL", "SPOT intensity": 4}
{"binder": "SNRRPVPRRPSQPLN", "SPOT intensity": 129}
{"biological_target": "Sho1, P40073", "sequence (P40073 287-367)": "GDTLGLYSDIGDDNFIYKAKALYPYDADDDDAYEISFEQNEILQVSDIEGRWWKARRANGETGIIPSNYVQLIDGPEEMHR", "test": "SPOT array", "details": "median of control spots 1148"}
{"binder": "RSVKRPRRAPRPVVS", "SPOT intensity": 60}
{"binder": "RRTRLRPPTPLSQLL", "SPOT intensity": 39}
{"binder": "SNRRPVPRRPSQPLN", "SPOT intensity": 31}
{"biological_target": "T13, Boi1, P38041", "T13 sequence (P38041 1-86, looked up)": "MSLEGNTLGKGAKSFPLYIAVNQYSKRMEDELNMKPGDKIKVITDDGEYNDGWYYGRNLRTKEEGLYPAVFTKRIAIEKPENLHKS", "test": "SPOT array", "details": "median of control spots 1162"}
{"binder": "RSVKRPRRAPRPVVS", "SPOT intensity": 1}
{"binder": "RRTRLRPPTPLSQLL", "SPOT intensity": 0}
{"binder": "SNRRPVPRRPSQPLN", "SPOT intensity": 2}
{"biological_target": "T14, Hse1, P38753", "T14 sequence (P38753 208-285, looked up)": "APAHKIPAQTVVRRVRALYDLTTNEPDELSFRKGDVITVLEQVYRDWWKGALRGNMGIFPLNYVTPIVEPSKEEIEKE", "test": "SPOT array", "details": "median of control spots 1727"}
{"binder": "RSVKRPRRAPRPVVS", "SPOT intensity": 8}
{"binder": "RRTRLRPPTPLSQLL", "SPOT intensity": 17}
{"binder": "SNRRPVPRRPSQPLN", "SPOT intensity": 9}
{"biological_target": "GST", "test": "SPOT array", "details": "median of control spots 978"}
{"binder": "RSVKRPRRAPRPVVS", "SPOT intensity": 4}
{"binder": "RRTRLRPPTPLSQLL", "SPOT intensity": 5}
{"binder": "SNRRPVPRRPSQPLN", "SPOT intensity": 0}
{"biological_target": "Bem1-1, P29366", "sequence (P29366 55-141)": "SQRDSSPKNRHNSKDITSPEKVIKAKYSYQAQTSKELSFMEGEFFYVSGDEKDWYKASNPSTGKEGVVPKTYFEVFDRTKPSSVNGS", "test": "SPOT array", "details": "median of control spots 4282"}
{"binder": "RSVKRPRRAPRPVVS", "SPOT intensity": 3}
{"binder": "RRTRLRPPTPLSQLL", "SPOT intensity": 2}
{"binder": "SNRRPVPRRPSQPLN", "SPOT intensity": 1}
{"biological_target": "T15, Lsb3, P43603", "T15 sequence (P43603 385-451, looked up)": "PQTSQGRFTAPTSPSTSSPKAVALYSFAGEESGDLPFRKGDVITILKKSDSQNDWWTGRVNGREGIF", "test": "SPOT array", "details": "median of control spots 406"}
{"binder": "RSVKRPRRAPRPVVS", "SPOT intensity": 52}
{"binder": "RRTRLRPPTPLSQLL", "SPOT intensity": 2}
{"binder": "SNRRPVPRRPSQPLN", "SPOT intensity": 183}
{"biological_target": "T16, Myo5, Q04439", "T16 sequence (Q04439 1072-1160, looked up)": "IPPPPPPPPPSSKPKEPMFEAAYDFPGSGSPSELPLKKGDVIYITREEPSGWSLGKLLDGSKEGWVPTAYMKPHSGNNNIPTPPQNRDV", "test": "SPOT array", "details": "median of control spots 471"}
{"binder": "RSVKRPRRAPRPVVS", "SPOT intensity": 1}
{"binder": "RRTRLRPPTPLSQLL", "SPOT intensity": 0}
{"binder": "SNRRPVPRRPSQPLN", "SPOT intensity": 0}
{"biological_target": "T17, Bbc1, P47068", "T17 sequence (P47068 1-78, looked up)": "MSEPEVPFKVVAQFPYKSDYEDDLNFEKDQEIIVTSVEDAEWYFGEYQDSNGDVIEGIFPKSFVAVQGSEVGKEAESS", "test": "SPOT array", "details": "median of control spots 796"}
{"binder": "RSVKRPRRAPRPVVS", "SPOT intensity": 377}
{"binder": "RRTRLRPPTPLSQLL", "SPOT intensity": 348}
{"binder": "SNRRPVPRRPSQPLN", "SPOT intensity": 248}
{"biological_target": "T18, Cdc25, P04821", "T18 sequence (P04821 50-136, looked up)": "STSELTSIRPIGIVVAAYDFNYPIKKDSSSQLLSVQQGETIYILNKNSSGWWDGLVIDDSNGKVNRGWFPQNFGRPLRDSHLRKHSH", "test": "SPOT array", "details": "median of control spots 969"}
{"binder": "RSVKRPRRAPRPVVS", "SPOT intensity": 20}
{"binder": "RRTRLRPPTPLSQLL", "SPOT intensity": 24}
{"binder": "SNRRPVPRRPSQPLN", "SPOT intensity": 35}
{"biological_target": "Rvs167, P39743", "sequence (P39743 419-482)": "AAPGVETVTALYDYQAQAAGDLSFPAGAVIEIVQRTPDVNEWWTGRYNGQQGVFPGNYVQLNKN", "test": "SPOT array", "details": "median of control spots 2707"}
{"binder": "RSVKRPRRAPRPVVS", "SPOT intensity": 9}
{"binder": "RRTRLRPPTPLSQLL", "SPOT intensity": 0}
{"binder": "SNRRPVPRRPSQPLN", "SPOT intensity": 3400}
{"biological_target": "T19, Hof1, Q05080", "T19 sequence (Q05080 590-669, looked up)": "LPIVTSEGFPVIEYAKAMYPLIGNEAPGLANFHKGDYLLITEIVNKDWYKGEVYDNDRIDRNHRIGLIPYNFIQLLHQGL", "test": "SPOT array", "details": "median of control spots 4086"}
{"binder": "RSVKRPRRAPRPVVS", "SPOT intensity": 6}
{"binder": "RRTRLRPPTPLSQLL", "SPOT intensity": 5}
{"binder": "SNRRPVPRRPSQPLN", "SPOT intensity": 18}
{"biological_target": "T20, Bzz1-1, P38822", "T20 sequence (P38822 478-572, looked up)": "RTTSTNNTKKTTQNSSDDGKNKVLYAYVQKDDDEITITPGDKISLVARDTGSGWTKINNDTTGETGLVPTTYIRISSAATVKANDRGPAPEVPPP", "test": "SPOT array", "details": "median of control spots 4446"}
{"binder": "RSVKRPRRAPRPVVS", "SPOT intensity": 0}
{"binder": "RRTRLRPPTPLSQLL", "SPOT intensity": 2}
{"binder": "SNRRPVPRRPSQPLN", "SPOT intensity": 0}
{"biological_target": "Myo3, P36006", "test": "SPOT array", "details": "median of control spots 468"}
{"binder": "RSVKRPRRAPRPVVS", "SPOT intensity": 11}
{"binder": "RRTRLRPPTPLSQLL", "SPOT intensity": 6}
{"binder": "SNRRPVPRRPSQPLN", "SPOT intensity": 3}
{"biological_target": "T21, Fus1, P11710", "T21 sequence (P11710 432-512, looked up)": "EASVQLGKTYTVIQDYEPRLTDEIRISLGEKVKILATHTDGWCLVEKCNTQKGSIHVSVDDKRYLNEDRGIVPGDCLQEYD", "test": "SPOT array", "details": "median of control spots 1200"}
{"binder": "RSVKRPRRAPRPVVS", "SPOT intensity": 19}
{"binder": "RRTRLRPPTPLSQLL", "SPOT intensity": 17}
{"binder": "SNRRPVPRRPSQPLN", "SPOT intensity": 0}
